Assay results reported in article PMC5538626, “Structural and functional analysis of the GABARAP interaction motif (GIM)” (EMBO Reports, 2017).

Key:
endogenous LC3B = experiment: Co-immunoprecipitation of GFP-FUNDC1 with endogenous LC3B, HEK293 cells; type: cell-based; details: HEK293, non-stimulated (DMSO); Fig 5C left
Procedure: (§1) Blots were probed for the presence of endogenous GABARAP and LC3B proteins. • 3xFlag‐FIP200 WT, E703V, I705V, E703V/I705V and F702A/I705A were overexpressed in HEK293 cells and immunoprecipitated using anti‐Flag beads and subjected to SDS–PAGE and Western blotting. Blots were probed for the presence of endogenous GABARAP and LC3B proteins. • GFP‐FUNDC1 WT, E19V, L21V, E19V/L21V and Y18A/L21A were overexpressed in HEK293 cells and either treated with vehicle only (DMSO) or 20 μM CCCP for 2 h, lysed and GFP‐FUNDC1 immunoprecipitated using anti‐GFP beads (or anti‐RFP beads as control) and subjected to SDS–PAGE and Western blotting. Blots were probed for the presence of endogenous GABARAP and LC3B proteins.

endogenous GABARAP = experiment: Co-immunoprecipitation of GFP-FUNDC1 with endogenous GABARAP, HEK293 cells; type: cell-based; details: HEK293, non-stimulated (DMSO); Fig 5C left
Procedure: as §1

GFP-LC3B = experiment: Co-immunoprecipitation of full-length PLEKHM1 LIR variants with GFP-LC3B; details: full-length PLEKHM1-Flag, Fig 4C

B1: E19V: GFP-FUNDC1 E19V (protein, UniProt Q8IVP5 1-155, looked up, variant E19V)
FUN14 domain-containing …: MATRNPPPQDYESDDDSYVVLDLTEYARRHQWWNRVFGHSSGPMVEKYSVATQIVMGGVTGWCAGFLFQKVGKLAATAVGGGFLLLQIASHSGYVQIDWKRVEKDVNKAKRQIKKRANKAAPEINNLIEEATEFIKQNIVISSGFVGGFLLGLAS
modifications: GFP tag
interaction of FUNDC1 with endogenous LC3 (endogenous LC3B): increased LC3 interaction
interaction of FUNDC1 with endogenous GABARAP (endogenous GABARAP): moderately enhanced

B2: L21V: GFP-FUNDC1 L21V (protein, UniProt Q8IVP5 1-155, looked up, variant L21V)
FUN14 domain-containing …: MATRNPPPQDYESDDDSYEVVDLTEYARRHQWWNRVFGHSSGPMVEKYSVATQIVMGGVTGWCAGFLFQKVGKLAATAVGGGFLLLQIASHSGYVQIDWKRVEKDVNKAKRQIKKRANKAAPEINNLIEEATEFIKQNIVISSGFVGGFLLGLAS
modifications: GFP tag
interaction of FUNDC1 with endogenous LC3 (endogenous LC3B): little effect
interaction of FUNDC1 with endogenous GABARAP (endogenous GABARAP): little effect

B3: PLEKHM1‐WCIL (full length): full-length PLEKHM1-Flag, variant LIR WVNV/WCIL (protein)
chain: MLSVVENGLDPQAAIPVIKKKLVGSVKALQKQYVSLDTVVTSEDGDANTMCSALEAVFIHGLHAKHIRAEAGGKRKKSAHQKPLPQPVFWPLLKAVTHKHIISELEHLTFVNTDVGRCRAWLRLALNDGLMECYLKLLLQEQARLHEYYQPTALLRDAEEGEFLLSFLQGLTSLSFELSYKSAILNEWTLTPLALSGLCPLSELDPLSTSGAELQRKESLDSISHSSGSEDIEVHHSGHKIRRNQKLTASSLSLDTASSSQLSCSLNSDSCLLQENGSKSPDHCEEPMSCDSDLGTANAEDSDRSLQEVLLEFSKAQVNSVPTNGLSQETEIPTPQASLSLHGLNTSTYLHCEAPAEPLPAQAASGTQDGVHVQEPRPQAPSPLDLQQPVESTSGQQPSSTVSETAREVGQGNGLQKAQAHDGAGLKLVVSSPTSPKNKSWISEDDFYRPSREQPLESASDHPIASYRGTPGSRPGLHRHFSQEPRKNCSLGALDQACVPSPGRRQAQAAPSQGHKSFRVVHRRQMGLSNPFRGLMKLGTVERRGAMGIWKELFCELSPLEFRLYLSNEEHTCVENCSLLRCESVGPAHSDGRFELVFSGKKLALRASSQDEAEDWLDRVREALQKVRPQQEDEWCILQYPDQPEEPPEAPQGCLSPSDLLSEPAALQGTQFDWSSAQVPEPDAIKESLLYLYMDRTWMPYIFSLSLEALKCFRIRNNEKMLSDSHGVETIRDILPDTSLGGPSFFKIITAKAVLKLQAGNAEEAALWRDLVRKVLASYLETAEEAVTLGGSLDENCQEVLKFATRENGFLLQYLVAIPMEKGLDSQGCFCAGCSRQIGFSFVRPKLCAFSGLYYCDICHQDDASVIPARIIHNWDLTKRPICRQALKFLTQIRAQPLINLQMVNASLYEHVERMHLIGRRREQLKLLGDYLGLCRSGALKELSKRLNHRNYLLESPHRFSVADLQQIADGVYEGFLKALIEFASQHVYHCDLCTQRGFICQICQHHDIIFPFEFDTTVRCAECKTVFHQSCQAVVKKGCPRCARRRKYQEQNIFA
modifications: left off: Flag, end not stated, kept
co-precipitation with GFP-LC3B (GFP-LC3B): increased co‐precipitation with GFP‐LC3B
co-precipitation with GFP-LC3B (GFP-LC3B; listed as Plekhm1-WCIL): increased interaction

B4: Plekhm1-mutLIR: full-length PLEKHM1-Flag, mutant LIR EDEWVNV/AAAAVNG (protein)
chain: MLSVVENGLDPQAAIPVIKKKLVGSVKALQKQYVSLDTVVTSEDGDANTMCSALEAVFIHGLHAKHIRAEAGGKRKKSAHQKPLPQPVFWPLLKAVTHKHIISELEHLTFVNTDVGRCRAWLRLALNDGLMECYLKLLLQEQARLHEYYQPTALLRDAEEGEFLLSFLQGLTSLSFELSYKSAILNEWTLTPLALSGLCPLSELDPLSTSGAELQRKESLDSISHSSGSEDIEVHHSGHKIRRNQKLTASSLSLDTASSSQLSCSLNSDSCLLQENGSKSPDHCEEPMSCDSDLGTANAEDSDRSLQEVLLEFSKAQVNSVPTNGLSQETEIPTPQASLSLHGLNTSTYLHCEAPAEPLPAQAASGTQDGVHVQEPRPQAPSPLDLQQPVESTSGQQPSSTVSETAREVGQGNGLQKAQAHDGAGLKLVVSSPTSPKNKSWISEDDFYRPSREQPLESASDHPIASYRGTPGSRPGLHRHFSQEPRKNCSLGALDQACVPSPGRRQAQAAPSQGHKSFRVVHRRQMGLSNPFRGLMKLGTVERRGAMGIWKELFCELSPLEFRLYLSNEEHTCVENCSLLRCESVGPAHSDGRFELVFSGKKLALRASSQDEAEDWLDRVREALQKVRPQQAAAAVNGQYPDQPEEPPEAPQGCLSPSDLLSEPAALQGTQFDWSSAQVPEPDAIKESLLYLYMDRTWMPYIFSLSLEALKCFRIRNNEKMLSDSHGVETIRDILPDTSLGGPSFFKIITAKAVLKLQAGNAEEAALWRDLVRKVLASYLETAEEAVTLGGSLDENCQEVLKFATRENGFLLQYLVAIPMEKGLDSQGCFCAGCSRQIGFSFVRPKLCAFSGLYYCDICHQDDASVIPARIIHNWDLTKRPICRQALKFLTQIRAQPLINLQMVNASLYEHVERMHLIGRRREQLKLLGDYLGLCRSGALKELSKRLNHRNYLLESPHRFSVADLQQIADGVYEGFLKALIEFASQHVYHCDLCTQRGFICQICQHHDIIFPFEFDTTVRCAECKTVFHQSCQAVVKKGCPRCARRRKYQEQNIFA
modifications: left off: Flag, end not stated, kept
co-precipitation with GFP-LC3B (GFP-LC3B): decreased interaction
